{
  "source": "paper PMC7145618",
  "molecules": {"B1": {"name": "internally melted duplex (dsDNA)", "DNA 1": "GGGCGGCGGTTTTTTTTTTGCGGGGCGG", "DNA 2": "CCGCCCCGCTTTTTTTTTTCCGCCGCCC"}},
  "key": {"[1]": {"molecular_target": "Drc (ssDNA-binding RNA Polymerase Cofactor), Pseudomonas virus LUZ7 gp14 (Pseudomonas virus LUZ7)", "assay": "crystal structure"}, "[2]": {"molecular_target": "Drc(Δ67–99) (Pseudomonas virus LUZ7)", "assay": "SEC"}, "Drc (gp14) [3]": {"molecular_target": "T1, Drc (gp14) (Pseudomonas phage LUZ7, UniProt C8ZKB3)", "T1 sequence": "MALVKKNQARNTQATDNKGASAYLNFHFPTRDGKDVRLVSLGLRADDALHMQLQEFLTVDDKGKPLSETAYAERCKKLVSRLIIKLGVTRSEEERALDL", "assay": "EMSA"}, "Drc (gp14) [4]": {"molecular_target": "T1, Drc (gp14)", "assay": "EMSA", "remark": "listed apart in the source"}},
  "note": "Read-outs that look alike come from different tables or passages of the source.",
  "data": [
    {"molecule": "Drc (ssDNA-binding RNA Polymerase Cofactor), Pseudomonas virus LUZ7 gp14 (natural protein)", "values": [
      {"measurement": "stoichiometry N", "setting": "[1]", "value": 2}
    ]},
    {"molecule": "Drc(Δ67–99) (domain or fragment)", "values": [
      {"measurement": "stoichiometry N", "setting": "[2]", "value": 2}
    ]},
    {"molecule": "TGAGTTTTTTTCATTTTTTGCGTAAATTTC (ssDNA)", "note": "[30-nt ssDNA]", "values": [
      {"measurement": "binding result", "setting": "Drc (gp14) [3]", "value": "binds"}
    ]},
    {"molecule": "B1", "values": [
      {"measurement": "binding result", "setting": "Drc (gp14) [4]", "value": "binds"}
    ]}
  ]
}
